Experimental data published in the supplement of paper PMC9170038.

Test system: MS2 coat protein
Experiment: apparent KD of MS2 coat protein; designed switch direction (-1 OFF switch, 1 ON switch): -1; higher = weaker reporter binding
How it was run: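 The buffer was Tris-HCl pH 7.5 with KCl, MgCl2, BSA, DTT, tRNA and Tween-20. In it, SNAP-549-labelled MS2 coat protein was titrated in doubling steps from 0.7 or 1.5 nM to 3 µM over chip-bound RNA switches transcribed by stalled E. coli RNA polymerase on Illumina chips. Apparent KD is the per-design median over clusters of curve fits to normalised fluorescence.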

[1] = Eterna round: R95, input ligand: FMN 200 uM
[2] = Eterna round: R95, input ligand: microRNA oligo, concentration not stated
[3] = Eterna round: R95, input ligand: none
[4] = input ligand: microRNA oligo, concentration not stated

| Sequence | apparent KD of MS2 coat protein [2] [µM] | apparent KD of MS2 coat protein (input ligand: FMN 200 uM) [µM] | apparent KD of MS2 coat protein (input ligand: none) [µM] | also measured |
| --- | --- | --- | --- | --- |
| GAAAAGGUAGGAUAUACGAAAAAAAAGGGUAGAAAAAAAAAACAUGAGGAUCACCCAUGUAGAAGGACCAAAAG [salish99_ex2_r3_059] (puzzle: Exclusion 2) | 0.0266 | – | – | apparent KD of MS2 coat protein [1]: 0.134 µM; apparent KD of MS2 coat protein [3]: 0.0137 µM |
| AACCGUGCGGAGGAUAUUGAUAUCCCAGUCUAUCAAGAAGGCUGCACAUGAGGAUCACCCAUGUGAUCCGUGCU [Riri] (Eterna round: R96, puzzle: Exclusion 6) | – | 0.201 | 0.0251 | apparent KD of MS2 coat protein [4]: 0.0207 µM |
| GGUGCGUAUGUGAGGAUAUGCUGGUCCUUGGAUCAGCAGAAGGCACAUGAGGAUCACCCAUGUGGUGUCGUACG [salish99_Bmod_Ex4_012] (puzzle: Brourd's mod of Exclusion 4) | 0.0546 | – | – | – |
| AUUGUUUGAUACCUCUAAUACAUGAGGAUCACCCAUGUUAUCGAGGAUAUGCAUUAGAGUGGUUAGCAGAAGGCGAAGUAAUUG [JR_ExcNG3_Sub030] (Eterna round: R96, puzzle: Exclusion NG 3) | – | 0.0185 | 0.0171 | apparent KD of MS2 coat protein [4]: 0.0142 µM |
| AAAAUGUAAGGAUAUCGUUCACUUGACAAAAGUCAAGUGAACGAGAAGGUACAUGAGGAUCACCCAUGUAUGGG [-29.9, -29 kcal, A 38%] (Eterna round: R97, puzzle: Exclusion 4) | – | 0.131 | 1.34 | – |
| CGCUAGUCAGGAUAUACGAACAUGUCAAAAGACGUGAAGGGACAUGAGGAUCACCCAUGUAGAAGGGACUAGCU [salish99_ex2_r3_013] (puzzle: Exclusion 2) | 0.0247 | – | – | – |
| AGAACAUGAGGAUCACCCAUGUCGCUUUGCCUACCAAACAGGGAGGAUAUGUAGGGCGCGCACCUACAGAAGGCCCAAACGGAA [Eternabot solution 13] (Eterna round: R96, puzzle: Exclusion NG 3) | – | 0.017 | 0.0225 | apparent KD of MS2 coat protein [4]: 0.0185 µM |
| UUAUACGUUGAGGAUAUGCGAAUUAGUAUAGUUGCAGAAGGCGAUACAUGAGGAUCACCCAUGUUUAUGGGCAU [LRO-Ex6-06] (puzzle: Exclusion 6) | 0.152 | – | – | – |
| UGUAUCCGAGGAUAUCGCUUGAGGGACAUGAGGAUCACCCAUGUGAAGAAAAGCGUCCCGCGAGAAGGCGGACCCA [EX5 B.24] (Eterna round: R97, puzzle: Exclusion 5) | – | 0.189 | 0.0664 | – |
| GUAGUGUUAGGAUAUCUGCCUCCGAGGUAUUCCAUGAAUAGAGAGAAGGGACAUGAGGAUCACCCAUGUGGGUA [Eternabot (L2) Solution 92] (Eterna round: R97, puzzle: Exclusion 4) | – | 0.0905 | 0.295 | – |
| UCAGGUGCAGGAUAUACAUGAGGAUCACCCAUGUGGUCACGUGACGAUAGUCACGAAUGUAGAAGGGCACCUGA [E3/3-D1] (Eterna round: R97, puzzle: Exclusion 3) | – | 0.0601 | 0.958 | – |
| UUGUCGCAUGUAGGAUAUGUAUGUUAUUAUCAUACAGAAGGACAUGAGGAUCACCCAUGUGUAUUAUUAUUAUAUGUUACAUAU [MOD of Hoglahoo's a different Title] (Eterna round: R96, puzzle: Exclusion NG 1) | – | – | – | apparent KD of MS2 coat protein [4]: 0.014 µM |
| UACAUGAGGAUCACCCAUGUUUUGUCGUGUAUGGUAUUUAUCUAGGAUAUCAAUCUAUUUAAUUAUGAGAAGGAGAAUAUUAAU [JMF's solution 53] (Eterna round: R96, puzzle: Exclusion NG 3) | – | 0.0372 | 0.0393 | apparent KD of MS2 coat protein [4]: 0.0325 µM |
| UUAUACGUUGAGGAUAUGCGAAUAAGUAUAGUUGCAGAAGGCGAUACAUGAGGAUCACCCAUGUUCAUGGACAU [LRO-Ex6-04] (puzzle: Exclusion 6) | 0.106 | – | – | – |
| GAGUAGGGAGGAUAUACGUGCUCAAUCCCGGAAAGCGGGAAACAUGAGGAUCACCCAUGUAGAAGGCCCAUAAA [Riisen] (puzzle: Exclusion 2) | 0.0684 | – | – | – |
| UUGUGCACGCUGCGAUCCUACAUGAGGAUCACCCAUGUGGUCUGGUGGCGUGGGUCACCGGACUUGGCUCGUCUUGU [salish99_S_TOV1_R5_080] (Eterna round: R97, puzzle: Sensor, turn-off variant 1) | – | 0.0696 | 0.0808 | – |
| UUCGGCGGAGGAUAUACAGUUUUUUGUUGAAUCGGCGGGAAACAUGAGGAUCACCCAUGUAGAAGGUUGUUGAA [-18.7, -16.7 kcal, A 27%] (Eterna round: R97, puzzle: Exclusion 2) | – | 0.0633 | 0.078 | – |
| ACAAGCUUUUAGAUUCUUAACAUGAGGAUCACCCAUGUGCUCGUCUUAUUGGCCGGCCGGCCGCCGGAAAAGCUUGU (Eterna round: R97, puzzle: Sensor, turn-off variant 1) | – | 0.0249 | 0.0253 | – |

| Sequence | apparent KD of MS2 coat protein [2] [µM] | apparent KD of MS2 coat protein (input ligand: FMN 200 uM) [µM] | apparent KD of MS2 coat protein (input ligand: none) [µM] | also measured |
| --- | --- | --- | --- | --- |
| GUUUGAUUAGGAUAUACAUGAGGAUCACCCAUGUGUCCCAGUUUAGAAAUAGACAAAAGUAGAAGGGAUUAGAU [Starry 2] (Eterna round: R97, puzzle: Exclusion 3) | – | 0.0378 | 0.0458 | – |
| AUGAAGUAAGGAUAUACAUGAGGAUCACCCAUGUAAAGAAAAGUAAUGGGAGUAAGAAGUAGAAGGUACGAGAA [JR_Exclu3_Sub061] (puzzle: Exclusion 3) | 0.0482 | – | – | apparent KD of MS2 coat protein [1]: 0.0534 µM; apparent KD of MS2 coat protein [3]: 0.0541 µM |
| UACAUGAGGAUCACCCAUGUUUUGUCGUGUAUGGUAUUUAUCUAGGAUAUCAAUUUAGUUAGUUAUGAGAAGGAGAAUAUUAAU [JMF's solution 76] (Eterna round: R96, puzzle: Exclusion NG 3) | – | 0.048 | 0.0438 | apparent KD of MS2 coat protein [4]: 0.0211 µM |
| GGCGGACAUGAGGAUCACCCAUGUCAGGAUAUUAGGCGAUCGUCGAUAGACGAUAGCCUGAGAAGGGACGCGCC [Mat - Exclusion 1 - Eli Mod - D13] (Eterna round: R97, puzzle: Exclusion 1) | – | 0.0186 | 0.0177 | – |
| GGUCGGCGAGGAUAUACAUGAGGAUCACCCAUGUGAUAGAGUGCACGCGUACGUGUACGUAGAAGGCGCUGACG [JL-ex3-3.28 salish99 mod] (puzzle: Exclusion 3) | 0.0132 | – | – | apparent KD of MS2 coat protein [1]: 0.0264 µM; apparent KD of MS2 coat protein [3]: 0.0125 µM |
| CUGUCCCAAGGAUAUACAUCAGUCCCAGGGUGCCGCAUAAGACAUGAGGAUCACCCAUGUAGAAGGUGGAGACC [Esaranre] (puzzle: Exclusion 2) | 0.0821 | – | – | – |
| GCCGUUAAAGGAUAUACAUGAGGAUCACCCAUGUCGGUAUAAAAUUUACCGCCUCCCUGUAGAAGGUUAAGGCA [Xebiatorer] (puzzle: Exclusion 3) | 0.0161 | – | – | – |
| UAAUAACAAGCAGGAUCCUACAUGAGGAUCACCCAUGUGCUCGUCUUAUAAAGUACUAUCACGAAAGUGAUAGUACU [Mat - Sensor v3 - turn-off var 1 - Eli Mod - D73] (puzzle: Sensor v3, turn-off variant 1) | 0.0719 | – | – | apparent KD of MS2 coat protein [1]: 0.208 µM; apparent KD of MS2 coat protein [3]: 0.25 µM |
| UAUUAGCAAGUAAGAUCCCACAUGAGGAUCACCCAUGUGCUCGUCAUAUCAGGUACUGUGAGGAAACUCACGGUACG [Sensor-V1 #86] (Eterna round: R97, puzzle: Sensor, turn-off variant 1) | – | 0.127 | 0.169 | – |
| GUAACAUGCUGGUGAUCAUACAUGAGGAUCACCCAUGUAACAAGCUUUUUGCUCGUCUUAUAAUUUAAGAUCACCAG [Stov1/7-A3] (Eterna round: R97, puzzle: Sensor, turn-off variant 1) | – | 0.0163 | 0.0162 | – |
| UUUUUAUCUGAAGGAUAUACUUAACAUGAGGAUCACCCAUGUGGUGUUGUGAGUGAGUGAGUUUAGUAGAAGGUCAAUUAUUUU [JMF's solution 19] (Eterna round: R96, puzzle: Exclusion NG 2) | – | 1.31 | 0.38 | apparent KD of MS2 coat protein [4]: 0.392 µM |
| AUACCACGAGGAUAUCGUCUAUUUUACAUGAGGAUCACCCAUGUUAUCUUUGUAAUGUUUCGAGAAGGCGUGUUUU [JR_E5_Sub080] (puzzle: Exclusion 5) | 0.0317 | – | – | – |
| UUUUACAGGCUUAGAUCCUACAUGAGGAUCACCCAUGUGGUGGCGUGUCGUGAGACAUGCCACUAAGCUCGUCUUGU [JL TOV1 3.73] (Eterna round: R97, puzzle: Sensor, turn-off variant 1) | – | 0.0983 | 0.103 | – |
| CCUAUGUGAGGAUAUCACUGGUCUUUUCAUUAGAUGAUCAGUGAGAAGGCACAUGAGGAUCACCCAUGUCAGUG [Ex4 - 3 - 53] (puzzle: Exclusion 4) | 0.0718 | – | – | – |
| UCUUACUGAGGAUAUACAUAGAUUUACAUGAGGAUCACCCAUGUUCCUCUAAGUAUAUAUGUAGAAGGCAGAAGAA [Mat - Exclusion 5 - JL Mod - D43] (Eterna round: R97, puzzle: Exclusion 5) | – | 0.139 | 0.37 | – |
| ACUUAUAGAGGAUAUACAGUUUAUUACAUGAGGAUCACCCAUGUUCUUCAAUGUAUAUAAGUAGAAGGCUAAGGAA [EX-5 Malc#5] (Eterna round: R96, puzzle: Exclusion 5) | – | – | – | apparent KD of MS2 coat protein [4]: 0.0337 µM |
| AAAACUUUGAGAGGAUAUCUGAAAGGAAGUGUAAGAGAAGGCUCAGAGGACAUGAGGAUCACCCAUGUACGUCAUGGGCUCCGA [PowerStrip EXNG 1.15] (Eterna round: R96, puzzle: Exclusion NG 1) | – | 0.0498 | 0.111 | apparent KD of MS2 coat protein [4]: 0.0396 µM |
| AAAAGUCUUUAGGAUAUGUGCGAUUAAUAUCGUGCAGAAGGAAGGACAUGAGGAUCACCCAUGUUGAAGACAAC [Omei Ex6 A19] (Eterna round: R97, puzzle: Exclusion 6) | – | 0.0511 | 0.0221 | – |
